Experimental findings from article PMC6509880 are described below.

This assay deals with apo-CrHydA1 ([4Fe4S]-CrHydA1, Chlamydomonas reinhardtii [FeFe] hydrogenase HydA1 lacking the [2Fe] subsite) (Chlamydomonas reinhardtii).

“[2Fe]^adt-CaHydF (semi-synthetic HydF from Clostridium acetobutylicum loaded with [Fe2(adt)(CO)4(CN)2]^2-) (natural protein)” yielded an H2 evolution (methyl viologen assay, GC) of 0.04 uM apo-CrHydA1 after 60 min at 37 °C with 0.04-1.2 uM [2Fe]^adt-CaHydF; excess of HydF needed for complete activation of 10 fold excess.
